Laboratory results taken from article PMC11392804.

Columns and labels:
[1] = SEC; Superdex 75 Increase 10/300 GL, ~2 mg ml^−1 (76 μM) protein loaded via 100 μl loop, 0.8 ml min^−1, 150 mM NaCl, 20 mM HEPES pH 7.2; monomer and dimer percentages from integrated peak areas; dimer to monomers
[2] = target: StayGold (Cytaeis uchidae (parent GFP)); test: as above

Substance	percent monomer (SEC peak areas) [1]	percent dimer (SEC peak areas) [1]	stoichiometry N [2]
mStayGold (StayGold E138D)	the E138D mutant is more than 99% monomer	–	–
StayGold	–	the original StayGold is ~98% dimer	2
